# Data taken from patent publication US20120219562A1 (AbbVie / Abbott, published 2012).
# T1: human interleukin 12 (human, UniProt P29459 23-219; P29460 23-328)
# T1 construct: heterodimer of p35 and p40 linked by a disulfide bridge; also called hIL-12; IL-12
# T1 sequence (looked up) 1: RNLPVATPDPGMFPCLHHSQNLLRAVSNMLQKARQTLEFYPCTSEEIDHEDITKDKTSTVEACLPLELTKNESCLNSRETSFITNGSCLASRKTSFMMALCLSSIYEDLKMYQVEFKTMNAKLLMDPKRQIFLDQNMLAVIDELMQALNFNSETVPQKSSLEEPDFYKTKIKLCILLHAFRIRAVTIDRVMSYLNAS
# T1 sequence (looked up) 2: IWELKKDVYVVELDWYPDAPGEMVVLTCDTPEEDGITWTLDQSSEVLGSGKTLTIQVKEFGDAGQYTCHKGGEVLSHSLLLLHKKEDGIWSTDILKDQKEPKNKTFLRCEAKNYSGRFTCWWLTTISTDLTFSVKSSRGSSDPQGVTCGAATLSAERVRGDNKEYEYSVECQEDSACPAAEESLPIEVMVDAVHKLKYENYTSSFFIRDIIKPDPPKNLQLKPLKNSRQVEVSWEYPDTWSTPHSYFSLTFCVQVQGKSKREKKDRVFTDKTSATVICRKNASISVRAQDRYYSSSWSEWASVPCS
# T2: human interleukin 12 (p70 heterodimer of p35 and p40) (human, UniProt P29459 23-219; P29460 23-328)
# T2 construct: Recombinant human IL-12; also called hIL-12; IL-12
# T2 sequence (looked up) 1: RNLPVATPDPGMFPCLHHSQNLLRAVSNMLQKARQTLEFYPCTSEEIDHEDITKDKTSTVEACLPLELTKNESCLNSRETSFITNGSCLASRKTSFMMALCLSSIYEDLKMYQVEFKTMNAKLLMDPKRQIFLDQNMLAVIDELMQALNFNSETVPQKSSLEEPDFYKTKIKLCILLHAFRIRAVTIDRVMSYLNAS
# T2 sequence (looked up) 2: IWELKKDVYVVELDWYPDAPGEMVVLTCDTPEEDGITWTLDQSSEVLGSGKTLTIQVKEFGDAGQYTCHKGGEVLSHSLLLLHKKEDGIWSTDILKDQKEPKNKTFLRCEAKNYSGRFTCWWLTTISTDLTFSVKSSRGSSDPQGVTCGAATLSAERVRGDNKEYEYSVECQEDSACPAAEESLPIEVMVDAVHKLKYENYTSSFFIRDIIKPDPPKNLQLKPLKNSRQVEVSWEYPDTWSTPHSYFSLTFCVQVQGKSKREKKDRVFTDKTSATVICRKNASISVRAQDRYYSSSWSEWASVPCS
# Target: T1, human interleukin 12
# Assay: SPR (BIAcore)
row,koff [s⁻¹],Binder
1,0.0008,"43-E9 (antibody, V domains shown) VH: QVQLVQSGGGVVQPGRSLRLSCAASGFTFSSYGMHWVRQAPGKGLEWVAFIRYDGSNKYYADSVKGRFTISRDNSKNTLYLQMKSLRAEDTAVYYCKTHGSHDNWGQGTMVTVSS VL: SYVLTQPPSVSGTPGQRVTISCSGGRSNIGSNTVKWYQQLPGTAPKLLIYGNDQRPSGVPDRFSGSKSGTSASLAITGVQAEDEADYYCQSYDRGTIPSIEFGTGTKVTVLG"
2,0.00323,"C4 (antibody, V domains shown) VH: QVQLVQSGGGVVQPGRSLRLSCAASGFTFSSYGMHWVRQAPGKGLEWVAFIRYDGSNKYYADSVKGRFTISRDNSKNTLYLQMKSLRAEDTAVYYCKTHGSHDNWGQGTMVTVSS VL: SYVLTQPPSVSGTPGQRVTISCSGGRSNIGSNTVKWYQQLPGTAPKLLIYGNDQRPSGVPDRFSGSKSGTSASLAITGVQAEDEADYYCQSYDRGTPNNSFFGTGTKVTVL"
3,0.0032,"136-9 (antibody, V domains shown) VH: QVQLVQSGGGVVQPGRSLRLSCAASGFTFSSYGMHWVRQAPGKGLEWVAFIRYDGSNKYYADSVKGRFTISRDNSKNTLYLQMKSLRAEDTAVYYCTTHGSHDDWGQGTMVTVSS VL: SYVLTQPPSVSGTPGQRVTISCSGGRSNIGSNTVKWYQQLPGTAPKLLIYGNDQRPSGVPDRFSGSKSGTSASLAITGVQAEDEADYYCQTYDISESGSRVFGTGTKVTVL"
4,0.0031,"C10 (antibody, V domains shown) VH: QVQLVQSGGGVVQPGRSLRLSCAASGFTFSSYGMHWVRQAPGKGLEWVAFIRYDGSNKYYADSVKGRFTISRDNSKNTLYLQMKSLRAEDTAVYYCKTHGSHDNWGQGTMVTVSS VL: SYVLTQPPSVSGTPGQRVTISCSGGRSNIGSNTVKWYQQLPGTAPKLLIYGNDQRPSGVPDRFSGSKSGTSASLAITGVQAEDEADYYCQSYDRGNSPIPTFGTGTKVTVLG"
5,0.00758,"B6 (antibody, V domains shown) VH: QVQLVQSGGGVVQPGRSLRLSCAASGFTFSSYGMHWVRQAPGKGLEWVAFIRYDGSNKYYADSVKGRFTISRDNSKNTLYLQMKSLRAEDTAVYYCKTHGSHDNWGQGTMVTVSS VL: SYVLTQPPSVSGTPGQRVTISCSGGRSNIGSNTVKWYQQLPGTAPKLLIYGNDQRPSGVPDRFSGSKSGTSASLAITGVQAEDEADYYCQSYDSGSLRRILFGTGTKVTVL"
6,0.0008,"43-E3 (antibody, V domains shown) VH: QVQLVQSGGGVVQPGRSLRLSCAASGFTFSSYGMHWVRQAPGKGLEWVAFIRYDGSNKYYADSVKGRFTISRDNSKNTLYLQMKSLRAEDTAVYYCKTHGSHDNWGQGTMVTVSS VL: SYVLTQPPSVSGTPGQRVTISCSGGRSNIGSNTVKWYQQLPGTAPKLLIYGNDQRPSGVPDRFSGSKSGTSASLAITGVQAEDEADYYCQSYDRGSHPAAEFGTGTKVTVLG"

# Target: T2, human interleukin 12 (p70 heterodimer …)
# Assay: SPR (BIAcore), off-rate
row,koff [s⁻¹],Binder
1,0.000252,"SEQ ID NO: 491 (Y61, D at L32) (antibody, V domains shown) VH: QVQLVQSGGGVVQPGRSLRLSCAASGFTFSSYGMHWVRQAPGKGLEWVAFIRYDGSNKYYADSVKGRFTISRDNSKNTLYLQMKSLRAEDTAVYYCKTHGSHDNWGQGTMVTVSS VL: SYVLTQPPSVSGTPGQRVTISCSGGRSNIGSNDVKWYQQLPGTAPKLLIYGNDQRPSGVPDRFSGSKSGTSASLAITGVQAEDEADYYCQSYDRGTHPALLFGTGTKVTVLG"
2,0.000292,"SEQ ID NO: 486 (Y61, Q at L31) (antibody, V domains shown) VH: QVQLVQSGGGVVQPGRSLRLSCAASGFTFSSYGMHWVRQAPGKGLEWVAFIRYDGSNKYYADSVKGRFTISRDNSKNTLYLQMKSLRAEDTAVYYCKTHGSHDNWGQGTMVTVSS VL: SYVLTQPPSVSGTPGQRVTISCSGGRSNIGSQTVKWYQQLPGTAPKLLIYGNDQRPSGVPDRFSGSKSGTSASLAITGVQAEDEADYYCQSYDRGTHPALLFGTGTKVTVLG"
3,0.000366,"SEQ ID NO: 488 (Y61, G at L31) (antibody, V domains shown) VH: QVQLVQSGGGVVQPGRSLRLSCAASGFTFSSYGMHWVRQAPGKGLEWVAFIRYDGSNKYYADSVKGRFTISRDNSKNTLYLQMKSLRAEDTAVYYCKTHGSHDNWGQGTMVTVSS VL: SYVLTQPPSVSGTPGQRVTISCSGGRSNIGSGTVKWYQQLPGTAPKLLIYGNDQRPSGVPDRFSGSKSGTSASLAITGVQAEDEADYYCQSYDRGTHPALLFGTGTKVTVLG"
4,0.000174,"SEQ ID NO: 489 (Y61, M at L31) (antibody, V domains shown) VH: QVQLVQSGGGVVQPGRSLRLSCAASGFTFSSYGMHWVRQAPGKGLEWVAFIRYDGSNKYYADSVKGRFTISRDNSKNTLYLQMKSLRAEDTAVYYCKTHGSHDNWGQGTMVTVSS VL: SYVLTQPPSVSGTPGQRVTISCSGGRSNIGSMTVKWYQQLPGTAPKLLIYGNDQRPSGVPDRFSGSKSGTSASLAITGVQAEDEADYYCQSYDRGTHPALLFGTGTKVTVLG"
5,9.7e-05,"SEQ ID NO: 490 (Y61, I at L31) (antibody, V domains shown) VH: QVQLVQSGGGVVQPGRSLRLSCAASGFTFSSYGMHWVRQAPGKGLEWVAFIRYDGSNKYYADSVKGRFTISRDNSKNTLYLQMKSLRAEDTAVYYCKTHGSHDNWGQGTMVTVSS VL: SYVLTQPPSVSGTPGQRVTISCSGGRSNIGSITVKWYQQLPGTAPKLLIYGNDQRPSGVPDRFSGSKSGTSASLAITGVQAEDEADYYCQSYDRGTHPALLFGTGTKVTVLG"
6,0.000309,"SEQ ID NO: 487 (Y61, T at L31) (antibody, V domains shown) VH: QVQLVQSGGGVVQPGRSLRLSCAASGFTFSSYGMHWVRQAPGKGLEWVAFIRYDGSNKYYADSVKGRFTISRDNSKNTLYLQMKSLRAEDTAVYYCKTHGSHDNWGQGTMVTVSS VL: SYVLTQPPSVSGTPGQRVTISCSGGRSNIGSTTVKWYQQLPGTAPKLLIYGNDQRPSGVPDRFSGSKSGTSASLAITGVQAEDEADYYCQSYDRGTHPALLFGTGTKVTVLG"

# Further lines, the binder ahead of its results:
row,Binder,koff [s⁻¹]
1,"SEQ ID NO: 477 (Y61, T at L30) (antibody, V domains shown) VH: QVQLVQSGGGVVQPGRSLRLSCAASGFTFSSYGMHWVRQAPGKGLEWVAFIRYDGSNKYYADSVKGRFTISRDNSKNTLYLQMKSLRAEDTAVYYCKTHGSHDNWGQGTMVTVSS VL: SYVLTQPPSVSGTPGQRVTISCSGGRSNIGTNTVKWYQQLPGTAPKLLIYGNDQRPSGVPDRFSGSKSGTSASLAITGVQAEDEADYYCQSYDRGTHPALLFGTGTKVTVLG",0.000226
2,"SEQ ID NO: 483 (Y61, H at L31) (antibody, V domains shown) VH: QVQLVQSGGGVVQPGRSLRLSCAASGFTFSSYGMHWVRQAPGKGLEWVAFIRYDGSNKYYADSVKGRFTISRDNSKNTLYLQMKSLRAEDTAVYYCKTHGSHDNWGQGTMVTVSS VL: SYVLTQPPSVSGTPGQRVTISCSGGRSNIGSHTVKWYQQLPGTAPKLLIYGNDQRPSGVPDRFSGSKSGTSASLAITGVQAEDEADYYCQSYDRGTHPALLFGTGTKVTVLG",0.000315
3,"SEQ ID NO: 482 (Y61, Y at L31) (antibody, V domains shown) VH: QVQLVQSGGGVVQPGRSLRLSCAASGFTFSSYGMHWVRQAPGKGLEWVAFIRYDGSNKYYADSVKGRFTISRDNSKNTLYLQMKSLRAEDTAVYYCKTHGSHDNWGQGTMVTVSS VL: SYVLTQPPSVSGTPGQRVTISCSGGRSNIGSYTVKWYQQLPGTAPKLLIYGNDQRPSGVPDRFSGSKSGTSASLAITGVQAEDEADYYCQSYDRGTHPALLFGTGTKVTVLG",0.000357
4,"SEQ ID NO: 481 (Y61, S at L31) (antibody, V domains shown) VH: QVQLVQSGGGVVQPGRSLRLSCAASGFTFSSYGMHWVRQAPGKGLEWVAFIRYDGSNKYYADSVKGRFTISRDNSKNTLYLQMKSLRAEDTAVYYCKTHGSHDNWGQGTMVTVSS VL: SYVLTQPPSVSGTPGQRVTISCSGGRSNIGSSTVKWYQQLPGTAPKLLIYGNDQRPSGVPDRFSGSKSGTSASLAITGVQAEDEADYYCQSYDRGTHPALLFGTGTKVTVLG",0.000392
5,"SEQ ID NO: 478 (Y61, P at L30) (antibody, V domains shown) VH: QVQLVQSGGGVVQPGRSLRLSCAASGFTFSSYGMHWVRQAPGKGLEWVAFIRYDGSNKYYADSVKGRFTISRDNSKNTLYLQMKSLRAEDTAVYYCKTHGSHDNWGQGTMVTVSS VL: SYVLTQPPSVSGTPGQRVTISCSGGRSNIGPNTVKWYQQLPGTAPKLLIYGNDQRPSGVPDRFSGSKSGTSASLAITGVQAEDEADYYCQSYDRGTHPALLFGTGTKVTVLG",0.00025
6,"SEQ ID NO: 480 (Y61, E at L31) (antibody, V domains shown) VH: QVQLVQSGGGVVQPGRSLRLSCAASGFTFSSYGMHWVRQAPGKGLEWVAFIRYDGSNKYYADSVKGRFTISRDNSKNTLYLQMKSLRAEDTAVYYCKTHGSHDNWGQGTMVTVSS VL: SYVLTQPPSVSGTPGQRVTISCSGGRSNIGSETVKWYQQLPGTAPKLLIYGNDQRPSGVPDRFSGSKSGTSASLAITGVQAEDEADYYCQSYDRGTHPALLFGTGTKVTVLG",0.000384
7,"SEQ ID NO: 479 (Y61, D at L31) (antibody, V domains shown) VH: QVQLVQSGGGVVQPGRSLRLSCAASGFTFSSYGMHWVRQAPGKGLEWVAFIRYDGSNKYYADSVKGRFTISRDNSKNTLYLQMKSLRAEDTAVYYCKTHGSHDNWGQGTMVTVSS VL: SYVLTQPPSVSGTPGQRVTISCSGGRSNIGSDTVKWYQQLPGTAPKLLIYGNDQRPSGVPDRFSGSKSGTSASLAITGVQAEDEADYYCQSYDRGTHPALLFGTGTKVTVLG",0.00058
8,"SEQ ID NO: 484 (Y61, K at L31) (antibody, V domains shown) VH: QVQLVQSGGGVVQPGRSLRLSCAASGFTFSSYGMHWVRQAPGKGLEWVAFIRYDGSNKYYADSVKGRFTISRDNSKNTLYLQMKSLRAEDTAVYYCKTHGSHDNWGQGTMVTVSS VL: SYVLTQPPSVSGTPGQRVTISCSGGRSNIGSKTVKWYQQLPGTAPKLLIYGNDQRPSGVPDRFSGSKSGTSASLAITGVQAEDEADYYCQSYDRGTHPALLFGTGTKVTVLG",0.000331
